{"source": "paper PMC10218236", "target": "L1CAM on L1CAM-high cells (LoVo) (Homo sapiens?) (UniProt P32004)", "sequence (P32004 20-1257)": "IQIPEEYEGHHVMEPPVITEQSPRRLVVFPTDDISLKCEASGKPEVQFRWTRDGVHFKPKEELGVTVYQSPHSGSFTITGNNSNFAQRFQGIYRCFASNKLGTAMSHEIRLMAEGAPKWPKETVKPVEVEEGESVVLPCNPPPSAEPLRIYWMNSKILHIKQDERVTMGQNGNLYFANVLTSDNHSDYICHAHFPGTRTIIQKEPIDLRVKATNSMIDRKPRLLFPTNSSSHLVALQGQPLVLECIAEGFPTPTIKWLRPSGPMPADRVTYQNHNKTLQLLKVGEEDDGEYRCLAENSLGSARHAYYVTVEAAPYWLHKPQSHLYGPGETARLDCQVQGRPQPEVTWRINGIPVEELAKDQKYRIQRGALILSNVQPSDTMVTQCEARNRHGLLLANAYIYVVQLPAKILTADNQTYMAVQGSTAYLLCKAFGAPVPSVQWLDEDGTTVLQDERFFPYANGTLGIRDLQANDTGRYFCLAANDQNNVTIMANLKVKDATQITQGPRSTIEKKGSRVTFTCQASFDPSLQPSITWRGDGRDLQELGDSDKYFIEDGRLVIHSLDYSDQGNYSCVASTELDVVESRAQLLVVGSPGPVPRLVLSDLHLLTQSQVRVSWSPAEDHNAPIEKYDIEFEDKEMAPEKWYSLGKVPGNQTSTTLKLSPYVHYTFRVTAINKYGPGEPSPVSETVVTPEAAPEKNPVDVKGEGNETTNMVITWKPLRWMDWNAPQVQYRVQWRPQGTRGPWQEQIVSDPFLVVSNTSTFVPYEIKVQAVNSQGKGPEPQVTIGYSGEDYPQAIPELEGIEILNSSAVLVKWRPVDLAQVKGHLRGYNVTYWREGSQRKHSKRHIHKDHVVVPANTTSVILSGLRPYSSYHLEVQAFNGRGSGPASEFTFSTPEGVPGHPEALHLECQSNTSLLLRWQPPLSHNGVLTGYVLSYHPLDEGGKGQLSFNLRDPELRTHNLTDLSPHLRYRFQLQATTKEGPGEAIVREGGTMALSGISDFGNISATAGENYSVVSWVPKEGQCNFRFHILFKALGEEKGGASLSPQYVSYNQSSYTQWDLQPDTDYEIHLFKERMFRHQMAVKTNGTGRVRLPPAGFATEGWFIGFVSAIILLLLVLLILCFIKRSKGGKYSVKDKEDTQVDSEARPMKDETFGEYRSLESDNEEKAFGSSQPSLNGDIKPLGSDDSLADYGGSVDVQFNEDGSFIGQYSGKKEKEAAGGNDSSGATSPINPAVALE", "experiment": "flow cytometry", "conditions": "PBS, 4.5 g/L glucose, 5 mM MgCl2, 1 mg/mL BSA, 0.1 mg/mL herring sperm DNA, 30 min at 4 °C (or 25/37 °C), pH not stated", "note": "Where “and” joins values, the source holds several entries; their conditions need not be identical. Equal values may be shown once."}
{"sequence": "AGCGCAGAAGGGGGTAGCTCGGTCGTGTTTTTGGGTTGTTTGGTGGGTCTTCTGCGCT [yly21-9-T]", "values": [{"measurement": "Kd", "value": 107, "unit": "nM"}]}
{"sequence": "AGCGCAGATAGGGGGTAGCTCGGTCGTGTTTTTGGGTTGTTTGGTGGGTCTTCTGCGCT [yly21]", "values": [{"measurement": "Kd", "value": "1.3 nM and 0.9 nM and 5.1 nM"}]}
{"sequence": "AGGATAGGGGGTAGCTCGGTCGTGTTTTTGGGTTGTTTGGTGGGTCTT [yly13]", "values": [{"measurement": "Kd", "setting": "cited from earlier work", "value": 369, "unit": "nM"}]}
{"sequence": "AGGATAGGGGGTAGCTCGGTCGTGTTTTTGGGTTGTTTGGTGGGTCTTCTG [yly12]", "values": [{"measurement": "Kd", "value": "21.6 nM and 111 nM"}, {"measurement": "Kd", "setting": "cited from earlier work", "value": 3.5, "unit": "nM"}]}
{"sequence": "ATAGGGGGTAGCTCGGTCGTGTTTTTGGGTTGTTTGGTGGGTCTTCTG [yly14]", "values": [{"measurement": "Kd", "setting": "cited from earlier work", "value": 92, "unit": "nM"}]}
{"sequence": "CAGAAGGGGGTAGCTCGGTCGTGTTTTTGGGTTGTTTGGTGGGTCTTCTG [yly20-5-T]", "values": [{"measurement": "Kd", "value": 112, "unit": "nM"}]}
{"sequence": "CAGATAGAGGGTAGCTCGGTCGTGTTTTTGGGTTGTTTGGTGGGTCTTCTG [yly20-G8A]", "values": [{"measurement": "Kd", "value": 18.9, "unit": "nM"}]}
{"sequence": "CAGATAGGGGGTAGCCCGGTCGTGTTTTCGGGTTGTTTGGTGGGTCTTCTG [yly20-T1629C]", "values": [{"measurement": "Kd", "value": 155, "unit": "nM"}]}
{"sequence": "CAGATAGGGGGTAGCCCGGTCGTGTTTTTGGGTTGTTTGGTGGGTCTTCTG [yly20-T16C]", "values": [{"measurement": "Kd", "value": 44.2, "unit": "nM"}]}
{"sequence": "CAGATAGGGGGTAGCTAGGTCGTGTTTTTGGGTTGTTTGGTGGGTCTTCTG [yly20-C17A]", "values": [{"measurement": "Kd", "value": 3.4, "unit": "nM"}]}
{"sequence": "CAGATAGGGGGTAGCTCGGTCATGTTTTTGGGTTGTTTGGTGGGTCTTCTG [yly20-G22A]", "values": [{"measurement": "Kd", "value": 1.3, "unit": "nM"}]}
{"sequence": "CAGATAGGGGGTAGCTCGGTCGTGATTTTGGGTTGTTTGGTGGGTCTTCTG [yly20-T25A]", "values": [{"measurement": "Kd", "value": 1.7, "unit": "nM"}]}
{"sequence": "CAGATAGGGGGTAGCTCGGTCGTGTTTCCGGGTTGTTTGGTGGGTCTTCTG [yly20-T2829C]", "values": [{"measurement": "Kd", "value": 55.9, "unit": "nM"}]}
{"sequence": "CAGATAGGGGGTAGCTCGGTCGTGTTTCTGGGTTGTTTGGTGGGTCTTCTG [yly20-T28C]", "values": [{"measurement": "Kd", "value": 5.3, "unit": "nM"}]}
{"sequence": "CAGATAGGGGGTAGCTCGGTCGTGTTTTCGGGTTGTTTGGTGGGTCTTCTG [yly20-T29C]", "values": [{"measurement": "Kd", "value": 4.2, "unit": "nM"}]}
{"sequence": "CAGATAGGGGGTAGCTCGGTCGTGTTTTTGGGCTGTTTGGTGGGTCTTCTG [yly20-T33C]", "values": [{"measurement": "Kd", "value": 9.5, "unit": "nM"}]}
{"sequence": "CAGATAGGGGGTAGCTCGGTCGTGTTTTTGGGTTATTTGGTGGGTCTTCTG [yly20-G35A]", "values": [{"measurement": "Kd", "value": 53.1, "unit": "nM"}]}
{"sequence": "CAGATAGGGGGTAGCTCGGTCGTGTTTTTGGGTTGTTTGGTGGGCCTTCTG [yly20-T45C]", "values": [{"measurement": "Kd", "value": 66.9, "unit": "nM"}]}
{"sequence": "CAGATAGGGGGTAGCTCGGTCGTGTTTTTGGGTTGTTTGGTGGGTATTCTG [yly20-C46A]", "values": [{"measurement": "Kd", "value": 46.4, "unit": "nM"}]}
{"sequence": "CAGATAGGGGGTAGCTCGGTCGTGTTTTTGGGTTGTTTGGTGGGTCTTCTG [yly20]", "values": [{"measurement": "Kd", "value": "2.3 nM and 1.9 nM and 7.6 nM"}]}
{"sequence": "CGGATAGGGGGTAGCTCGGTCGTGTTTTTGGGTTGTTTGGTGGGTCTTCTG [yly34]", "values": [{"measurement": "Kd", "value": "3.4 nM and 7.2 nM and 18.7 nM"}]}
{"sequence": "GGGATAGGGGGTAGCTCGGTCGTGTTTTTGGGTTGTTTGGTGGGTCTTCTG [yly33]", "values": [{"measurement": "Kd", "value": "6.2 nM and 12 nM and 41.4 nM"}]}
{"sequence": "TAGGGGGTAGCTCGGTCGTGTTTTTGGGTTGTTTGGTGGGTCTTCTG [yly16]", "values": [{"measurement": "Kd", "setting": "cited from earlier work", "value": 330, "unit": "nM"}]}
{"sequence": "TTTGGGTTGTTTGGTGGGTCTTCTGCAGATAGGGGGTAGCTCGGTCGTGTT [yly20re]", "values": [{"measurement": "Kd", "value": "4.2 nM and 4.4 nM and 13 nM"}]}
